Entries after “also recorded” stand apart in the source; their conditions may differ. Each block holds one molecule with its values, some of them ahead of it. *1 amine or outer side, *2 acyl side, *3 side chain or, on linkers, in order; H or OH if unused. Where a SMILES comes first, the peptide text is derived from it. [ ]: non-standard residue; d: D form. The star is where a group is joined. X2 = COc1cc(CN([C@@H](Cc2ccc(OP(=O)(O)O)cc2)C(=O)[*:2])[*:1])c([N+](=O)[O-])cc1OC; Gly(N-Dmnb) = COc1cc(CNCC(=O)O)c([N+](=O)[O-])cc1OC; X1 = CN(C)c1ccc(-c2cnc(-c3ccc(S(=O)(=O)*)cc3)o2)cc1; pY = N[C@@H](Cc1ccc(OP(=O)(O)O)cc1)C(=O)O; coumarin = not defined here; Dab = NCC[C@H](N)C(=O)O
Legend:
[1] = system: Ac-Gly-Gly-Gly-N(DMNB)Phe-coumarin (10)
[2] = system: Ac-Gly-Gly-Gly-Phe-coumarin (9)
[3] = system: H2N-Leu-Arg-Arg-Ala-N(DMNB)Ser-Leu-Gly-NH2 (12)
[4] = system: H2N-Leu-Arg-Arg-Ala-Ser-Leu-Gly-NH2 (11)
Lck SH2 domain [5] = molecular target: T1, Lck SH2 domain (Homo sapiens, UniProt P06239); experiment: Competition assay with dapoxyl-labeled sensor peptide A for Kd at the Lck SH2 domain; assay type: binding
T1 construct: made in house
Description: By contrast, the difference in affinity between 5 (43±10 μM) and 6 is somewhat more modest. The caged derivative 4 is converted to the high affinity form 6 upon photolysis. Longer photolysis times generate larger yields of the active peptide 6 (see “Experimental procedures” section below). The latter provides a straightforward means to deliver desired quantities of the active species.
The competition assay schematically illustrated in FIG. 7 was employed to determine Kds for peptides 4, 5, and 6. Experiments were conducted using 3 μM peptide A, 20 μM DTT, 5 μM GST-Lck-SH2 (in 10% glycerol), and 33.3 mM of Tris buffer (pH 7.5) in a total assay volume of 150 μL. The fluorescence of the solution was monitored on a Photon Technology QM-1 spectrofluorimeter at 30° C. at λex=395 nm and λem=535 nm. The fluorescence of the peptide A solution was measured in the presence of variable concentrations of peptides 4, 5, or 6. Control assays in the absence of GST-Lck-SH2 were also performed at the same concentrations. The following Kdx values were obtained: peptide 4 (127±6 μM), peptide 5 (43±10 μM), and peptide 6 (2.6±0.2).
and [St]=total [A], Fx=fluorescence at a given concentration of peptide X (i.e. 4, 5, or 6), Fmax=fluorescence in the absence of peptide X, F0=fluorescence in the absence of Lck-SH2 domain, Kd=binding constant of A/Lck-SH2 domain, [Pt]=total [Lck-SH2], [P]=uncomplexed [Lck-SH2], [Xt]=total [4, 5, or 6], [PX]=[4, 5, or 6/Lck-SH2 complex], [SP]=[A/Lck-SH2 complex], Kdx=dissociation constant of peptide 4, 5, or 6/Lck-SH2 domain complex.

α-chymotrypsin = molecular target: T2, α-chymotrypsin (Bos taurus, UniProt P00766); experiment: Chymotrypsin continuous fluorescence substrate assay; assay type: biochemical
T2 construct: purchased Fisher or Aldrich (general materials statement only)
Description: The peptide 9 stock solution contained 5% DMSO and the assay solution contained less than 1% DMSO. The reaction was monitored on a Photon Technology QM-1 spectrofluorimeter at 30° C. using a λex=380 nm and a λem=460 nm.
Assays were conducted using 25 μM light exposed caged peptide 10 in 50 mM Tris buffer (pH 8.0), and 100 mM NaCl, 5 mM CaCl2, and 0.01% Tween-20 to which α-chymotrypsin was added to initiate the reaction. The fluorescence of the solution was monitored on a Photon Technology QM-1 spectrofluorimeter at 30° C. at λex=380 nm and λem=460 nm. Caged peptide 10 was irradiated using an Oriel Mercury Arc Lamp (Model 69907) equipped with a 360 nm colored glass filter (300-400 nm band pass) and an IR filter for various time periods (0, 5, 10, 15, and 20 min).

GST-Lck-SH2 [6] = molecular target: GST-Lck-SH2 (UniProt P06239); experiment: fluorescence, 3 µM peptide A with 5 µM GST-Lck-SH2 and 32 µM unphotolysed peptide 4, t=0 min
GST-Lck-SH2 [7] = molecular target: GST-Lck-SH2 (UniProt P06239); experiment: fluorescence of dapoxyl peptide A with Lck SH2 domain
Lck SH2 domain [8] = molecular target: T1, Lck SH2 domain; experiment: Photolysis of caged peptide 4, read out by displacement of sensor A from the Lck SH2 domain; assay type: binding
Description: Experiments were conducted using 3 μM peptide A, 20 μM DTT, 5 μM GST-Lck-SH2 (in 10% glycerol), peptide 4 (32 μM) in 33.3 mM Tris buffer (pH 7.5) and a total assay volume 150 μL. The fluorescence of the solution was monitored on a Photon Technology QM-1 spectrofluorimeter at 30° C. at λex=395 nm and λem=535 nm. Caged peptide (4) was irradiated using an Oriel Mercury Arc Lamp (Model 69907) equipped with a 360 nm colored glass filter (300-400 nm band pass) and an IR filter for various time periods (0-30 min).
An aliquot from each irradiation time period was added to the assay solution. A decrease in fluorescence intensity is indicative of displacement of the SH2 domain sensor A from the SH2 domain by uncaged peptide (6) (see FIGS. 7 and 8). An analogous set of experiments was performed with peptide 5. The formation of uncaged peptide 6 from caged peptides 4 and 5 was confirmed by analytical HPLC (comparison with the retention time of peptide 6 prepared by solid phase peptide synthesis) and by mass spectrometry.

[9] = molecular target: T3, cAMP-dependent protein kinase (PKA) catalytic subunit (Homo sapiens, UniProt P17612); experiment: PKA [γ-33P]ATP radioactive phosphorylation assay; assay type: biochemical
T3 construct: made in house
Description: PKA assays were performed in triplicate. 20 μL of a 30 μM solution of 12, which had been photolyzed for different time periods (5, 10, 15, 20, 25, 30 min), was added to each well of 96 multi-well assay plate containing 20 μL assay buffer [100 mM MOPS, 150 mM KCl, 12.5 mM MgCl2 and 150 μM cold ATP supplemented with 70-163 μCi/well [γ^−33P]ATP for radioactive detection]. 10 μL enzyme diluted buffer containing 100 mM MOPS (pH 7.1), 0.125 mg/mL bovine serum albumin, and 8 nM PKA catalytic subunit were added to initiate the reaction. Total reaction volume was 50 μL. After a 12-min incubation time at 30° C., 100 μL of 6% phosphoric acid was added to each well to stop the reaction (total volume: 150 μL). Following an additional 5 min incubation period at ambient temperature, 75 μL from each reaction well was transferred into each well of a Unifilter (P81 cellulose phosphate paper) assay plate. Each well was washed four times with 0.1% phosphoric acid in water. Scintillation solution was added to each well and ^33P-incorporation measured by scintillation counting with a MicroBeta™ TriLux & MicroBeta JET (Perkin Elmer). The formation of the photouncaged peptide was confirmed by ESI mass spectrometry.
Assays were performed as described above, except that the enzymatic reaction was stopped at different time points (2, 4, 6, 8, 10, 12, 14 min) by adding 6% phosphoric acid.

[10] = 10 nM α-chymotrypsin, Tris pH 8.0, 30° C.

T1 sequence (P06239 127-224 limits assumed): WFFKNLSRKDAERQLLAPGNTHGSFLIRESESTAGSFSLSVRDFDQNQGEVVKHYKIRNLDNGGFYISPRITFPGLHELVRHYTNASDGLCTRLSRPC
Sequence of GST-Lck-SH2 (P06239 127-224 limits assumed): as above

Molecule: α-chymotrypsin
hydrolysis by chymotrypsin, continuous fluorescence assay [1]: the caged derivative 10 is essentially inactive as a chymotrypsin substrate | Km [2]: Km=6.3±1.3 µM | Vmax [2]: Vmax=7.2µmol/min-mg

Molecule: PKA catalytic subunit
PKA-catalyzed phosphorylation, [γ-33P]ATP assay [3]: In the absence of photolysis, peptide 12 fails to serve as a substrate | PKA-catalyzed phosphorylation, [γ-33P]ATP assay [4]: photolysis of 12 generates the active substrate 11 (as demonstrated by mass spectrometry) that, upon addition of PKA, furnishes the phosphorylated product

Molecule: CC[C@H](C)[C@H](NC(=O)[C@H](CCC(=O)O)NC(=O)CNC(=O)[C@H](Cc1ccc(OP(=O)(O)O)cc1)NC(C)=O)C(=O)N[C@@H](CCNC(C)=O)C(=O)N[C@@H](C)C(N)=O [peptide 6, Ac-pTyr-Gly-Glu-Ile-Dab(Ac)-Ala-NH2] (Ac-[pY]GEI[Dab](Ac)A-NH2)
Kd (Lck SH2 domain [5]): 2.6 ± 0.2 µM

Molecule: CC[C@H](C)[C@H](NC(=O)[C@H](CCC(=O)O)NC(=O)CNC(=O)[C@H](Cc1ccc(OP(=O)(O)O)cc1)N(Cc1cc(OC)c(OC)cc1[N+](=O)[O-])C(C)=O)C(=O)N[C@@H](CCNC(C)=O)C(=O)N[C@@H](C)C(N)=O [peptide 5, Ac-N(DMNB)pTyr-Gly-Glu-Ile-Dab(Ac)-Ala-NH2] (Ac-[X2]GEI[Dab](Ac)A-NH2)
Kd (Lck SH2 domain [5]): 43 ± 10 µM

Km (α-chymotrypsin; [10]): 6.3 ± 1.3 µM | Vmax (α-chymotrypsin; [10]): 7.2 µmol/min/mg | enhancement in fluorescence upon complete hydrolysis (α-chymotrypsin; λex=380 nm, λem=460 nm): ~6 fold
Molecule: Ac-Gly-Gly-Gly-Phe-coumarin (Ac-GGGF-coumarin; reading uncertain; also: printed as Ac-Gly-Gly-Gly-Phe-coumarin) [peptide 9]

fold enhancement in fluorescence intensity relative to A in the absence of Lck-SH2 domain (GST-Lck-SH2 [6]): 4 fold | fold increase in fluorescence upon binding (GST-Lck-SH2 [7]): 10 fold
Molecule: Ac-pTyr-Gly-Glu-Ile-Dab(Dapoxyl)-Ala-NH2 (A) (peptide)

Molecule: CC[C@H](C)[C@H](NC(=O)[C@H](CCC(=O)O)NC(=O)CNC(=O)[C@H](Cc1ccc(OP(=O)(O)O)cc1)NC(C)=O)C(=O)N[C@@H](CCNS(=O)(=O)c1ccc(-c2ncc(-c3ccc(N(C)C)cc3)o2)cc1)C(=O)N[C@@H](C)C(N)=O [peptide A, Ac-pTyr-Gly-Glu-Ile-Dab(Dapoxyl)-Ala-NH2] (Ac-[pY]GEI[Dab](X1)A-NH2)
enhancement in fluorescence intensity relative to A in the absence of Lck-SH2 domain (Lck SH2 domain [8]; t=0 min photolysis, 3 μM A, 5 μM GST-Lck-SH2, 32 μM peptide 4): 4 fold

activity as PKA substrate after photolysis ([9]; photolysis 5-30 min): generates the active substrate 11
Molecule: H2N-Leu-Arg-Arg-Ala-N(DMNB)Ser-Leu-Gly-NH2 [peptide 12]
activity as PKA substrate (phosphorylation) ([9]; in the absence of photolysis): fails to serve as a substrate; also recorded: not phosphorylated

Molecule: Ac-Gly-Gly-Gly-N(DMNB)Phe-coumarin [peptide 10]
activity as chymotrypsin substrate after photolysis (α-chymotrypsin; photolysis 5, 10, 15, 20 min): increasing photolysis times converts increasing amounts of caged analogue 10 to the active substrate 9 | activity as chymotrypsin substrate (α-chymotrypsin; without photolysis, 25 μM caged peptide): essentially inactive; also recorded: not hydrolyzed

Molecule: CC[C@H](C)[C@H](NC(=O)[C@H](CCC(=O)O)NC(=O)CN(Cc1cc(OC)c(OC)cc1[N+](=O)[O-])C(=O)[C@H](Cc1ccc(OP(=O)(O)O)cc1)NC(C)=O)C(=O)N[C@@H](CCNC(C)=O)C(=O)N[C@@H](C)C(N)=O [peptide 4, Ac-pTyr-N(DMNB)Gly-Glu-Ile-Dab(Ac)-Ala-NH2] (Ac-[pY][Gly(N-Dmnb)]EI[Dab](Ac)A-NH2)
effect of photolysis of the caged peptide in the competition assay (Lck SH2 domain [8]; irradiation 0-30 min, 300-400 nm band pass, 32 μM peptide 4): complete displacement of A from the Lck SH2 domain | Kd (Lck SH2 domain [5]): 127 ± 6 µM

— patent publication US20100075297A1, “PHOTOSENSITIVE POLYPEPTIDE AND METHODS OF THEIR PRODUCTION AND USE” (priority 2006, published 2010)
